Results taken from US20230218721A1, “INCRETIN ANALOGUE, PREPARATION METHOD THEREFOR, AND USE THEREOF” (ZHEJIANG DOER BIOLOGICS CO., LTD., priority 2020, published 2023).

Target: human glucagon-like peptide-1 receptor (GLP-1R) (human (printed as 'Humanized')) (UniProt P43220)
Test: cell-based or functional assay

Chain of human glucagon-like peptide-1 receptor (GLP-1R) (human (printed as 'Humanized')) (P43220 24-463): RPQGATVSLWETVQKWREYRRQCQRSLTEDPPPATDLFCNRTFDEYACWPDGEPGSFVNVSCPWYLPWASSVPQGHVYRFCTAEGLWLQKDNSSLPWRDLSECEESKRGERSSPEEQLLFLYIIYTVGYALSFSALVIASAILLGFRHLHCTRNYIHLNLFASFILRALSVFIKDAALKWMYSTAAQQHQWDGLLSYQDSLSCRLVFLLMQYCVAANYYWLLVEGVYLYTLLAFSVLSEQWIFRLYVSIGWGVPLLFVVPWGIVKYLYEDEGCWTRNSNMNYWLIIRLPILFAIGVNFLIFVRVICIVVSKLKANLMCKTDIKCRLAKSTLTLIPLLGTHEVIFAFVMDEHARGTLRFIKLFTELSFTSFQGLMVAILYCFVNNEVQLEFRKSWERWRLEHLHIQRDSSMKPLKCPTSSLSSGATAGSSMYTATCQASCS

## Dulaglutide (Trade name: Trulicity) (Fc fusion)
  GLP-1R agonist activity (EC50, nM): 0.01 nM
